In publication PMC5145273:

Biological target: FabL9, soluble purified Fab
Experiment: ELISA

- IC50: 260 nM
Substance: GluA4_(flip) ligand-binding domain (LBD), rat (domain or fragment)
